Laboratory results published in article PMC11511902.
Read-outs that look alike come from different tables or passages of the source.

What was measured:
Assay in all cases: SPR
[1] = molecular target: T1, His6-gp1 (Bacillus thuringiensis phage GIL01 …, UniProt Q7WSG8 1-58)
T1 sequence: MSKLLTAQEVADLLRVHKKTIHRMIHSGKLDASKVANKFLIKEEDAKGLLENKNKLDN

[2] = molecular target: T1, His6-gp1; remark: listed apart in the source
[3] = molecular target: T1, His6-gp1; remark: listed apart in the source

B1: SPR_wt 81-bp P2 fragment (dsDNA)
DNA 1: GTTACTACTCGAGCGAACATTTGCATTACTGGTAACTTTCGGGTAATATTGGTAGCAGAGAGGGACAAACGGGACAAATCGAGACACGATACATAC
DNA 2: GTATGTATCGTGTCTCGATTTGTCCCGTTTGTCCCTCTCTGCTACCAATATTACCCGAAAGTTACCAGTAATGCAAATGTT
DNA 3: CGCTCGAGTAGTAAC
B1: binds [1].

B2: SPR_172Δ355 (cp33.1) 81-bp fragment (dsDNA)
DNA 1: GTTACTACTCGAGCGAAAAGGAAAAGTGTGACAAGATATTCCAAGGGTGCTATAATAGGAAATGAGTAAACTACTGACTGCGCAAGAGGTTGCAGA
DNA 2: TCTGCAACCTCTTGCGCAGTCAGTAGTTTACTCATTTCCTATTATAGCACCCTTGGAATATCTTGTCACACTTTTCCTTTT
DNA 3: CGCTCGAGTAGTAAC
B2: no binding [2].

B3: SPR_252Δ262 (cp33.14) 81-bp fragment (dsDNA)
DNA 1: GTTACTACTCGAGCGTGTAATATAAAAACATTTGCATTACTGGTAATATTGGTAGCAGAGAGGGACAAACGGGACAAATCGAGACACGATACATAC
DNA 2: GTATGTATCGTGTCTCGATTTGTCCCGTTTGTCCCTCTCTGCTACCAATATTACCAGTAATGCAAATGTTTTTATATTACA
DNA 3: CGCTCGAGTAGTAAC
B3: binds [3].
